Measured values: the DeepSol protein solubility set

Assay: soluble on expression in E. coli; label from the status in PepcDB or PDB records

Row | Sequence | soluble on expression in E. coli
1 | MLHILCQGTPFEIGYEHGSAAKAVIARSIDFAVDLIRGKTKKTDEELKQVLSQLGRVIEERWPKYYEEIRGIAKGAERDVSEIVMLNTRTEFAYGLKAARDGATTAYCQLPNGALQGQNWDFFSATKENLIRLTIRQAGLPTIKFITEAGIIGKVGFNSAGVAVNYNALHLQGLRPTGVPSHIALRIALESTSPSQAYDRIVEQGGMAASAFIMVGNGHEAFGLEFSPTSIRKQVLDANGRMVHTNHCLLQHGKNEKELDPLPDSWNRHQRMEFLLDGFDGTKQAFAQLWADEDNYPFSICRAYEEGKSRGATLFNIIYDHARREATVRLGRPTNPDEMFVMRFDEEDERSALNARL | soluble
2 | MTQFDKQYNSIIKDIINNGISDEEFDVRTKWDSDGTPAHTLSVISKQMRFDNSEVPILTTKKVAWKTAIKELLWIWQLKSNDVNDLNMMGVHIWDQWKQEDGTIGHAYGFQLGKKNRSLNGEKVDQVDYLLHQLKNNPSSRRHITMLWNPDELDAMALTPCVYETQWYVKHGKLHLEVRARSNDMALGNPFNVFQYNVLQRMIAQVTGYELGEYIFNIGDCHVYTRHIDNLKIQMEREQFEAPELWINPEVKDFYDFTIDDFKLINYKHGDKLLFEVAV | soluble
3 | MSDKVQTMASAIYRELETMIKVHGEDGVKTLMPLVVNVLEALDLAYLERDEQTAELEMLKEDNEQLQTQYEREKALRKQTEQKYIEIEDTLIGQNKELDKKIESLESIMRMLELKAKNATDHASRLEEREVEQKLEFDRLHERYNTLLRTHVDHMERTKYLMGSEKFELMQNMPLPNMQLRNKMGMAASVDASSIRGVSDLISAHMTQSTTMDVNLANHITNEDWQDEFSSDIEPSPRDIPQSSADALTSPITTKEPTPKREAASPKQSEEEEADETTSVDPKENNDLLGADLTGNLVDPAEFASAVNDTFIGMGREVENLIKENSELLDMKNALNIVKNDLINQVDELNSENMILRDENLSRQMVSEKMQEQITKHEEEIKTLKQKLMEKENEQEEDDVPMAMRKRFTRSEMQRVLMDRNAYKEKLMELEESIKWTEMQRAKKMQQQQQNVNQKKSGGIWEFFSSLLGDSVTPPASSRGNRASSSRGKMTRSVEYIDPDMISERRAAERREQYKLVREHVKKEDGRIEAYGWSLPNVEAEVSSVPIPVCCRPLLDNEPSLKIWCATGVVLRGGRDERGQWIVGDPIYFAPASMKKTKTSNHRPELEDEIKRARNLDARESELDEWQSSSLVWVVSSNQGKSLIAVLDANNPNNIIETFPACDSHLLCIQAVSGVMEGEPEMNEEQSKKYLSGGGKIKDLPEGLDGTDLGACEWVELRKMEDSEDGVPTYCSNDMKPSPKRTRDFSISEVAPVDSSAPVKEDPLPPPANRPGGRAALPPHIRDAMSKYDGVSGQMSGALPTVWMGGQNQYIYIHSAVTAWKQCLRRIKMPDAVLSIVHYKSRIFAALANGTIAIFHRNKHGEWSDEGYHSLRVGSATSSVRSLCLVSTNIWATYKNCVVVLDAESLQIVKVFAAHPRKDSQVRNMQWVGAGVWLSIRLDSTLRLYHAHTYEHLQDVDIEPYVTKMLGTSKLDFSYMRTTALLVSNRRLWIGTGTGVIISVPFSGQLEKKIETKDSKRPAGPGGLVRVYGATSENATNDEKTNDDFIPYCNLAHAQLSFHGHKDSVKFFLGVPGASKNGEDESAEVTLRRMLIMSGGDGYIDFRIGEENEPELTGQSIRPRDMSHLIIWEVDAELPILSK | not soluble
4 | HEHPTSAGGDGGAGTGAVGTHDGSAAAAAAAAALPSISGARGHAGPEGGHDNDMGGMDASGGGGGGGYGRLPGLAAQSSMASVDGDEASLPPIANLSLGKANMTGSTVGGAAHASTRRSTLNTYYEPGAGGGGGTGGAGGGGGGAGPGPAGYGKVAKAAAVGGAGSVAGGGGVVGGAGVGGGGAVGSGTVGRRQSVGVVVGKYGSVNKQASQGHGGGGPGVAGAAGMAVTGGHAGGGVGGGGGGAVGVGGVGVNKYKANVGKTNSKYISPYSLRQLAG | not soluble
5 | MGSDKIHHHHHHMVMGDITRIDTVQQYCDLFEVEALHPLVSVVNCYEVQPIRHSKKLYNIYAVLLKDTDCGTMNYGRSLYDYEKGSMLFIAPGQVMGSDDDGSLHQPAGWALMFHPELLRGTSLAHIIKEYSYFSYNANEALHLSEQERKVVIECINNVAEELRHPIDKHSRSLIIDTMKLLLDRCIRFYDRQFITRENANNDLLARFELLLNNYYHSALPTSKGIPTVQYCADQLCLSTNYFSDLVKKETGMSAIKHIQQKIMDIAKERIMNTQKSISQISDEMGFQYPQHFTRWFKKMEGCTPNEYRNEIIKQAIN | not soluble
6 | MAHHHHHHMGTLEAQTQGPGSMFKLTGRKALVTGATGGIGEAIARCFHAQGAIVGLHGTREDKLKEIAADLGKDVFVFSANLSDRKSIKQLAEVAEREMEGIDILVNNAGITRDGLFVRMQDQDWDDVLAVNLTAASTLTRELIHSMMRRRYGRIINITSIVGVVGNPGQTNYCAAKAGLIGFSKALAQEIASRNITVNCIAPGFIKSAMTDKLNEKQKEAIMAMIPMKRMGIGEEIAFATVYLASDEAAYLTGQTLHINGGMAMI | soluble
7 | MRTAEIREKFLSFFEGKGHLRLPSFSLIPEDDPSLLFTSAGMAPLKPYFLGAKPIFGGREWRRVTTCQECLRVGDIENVGRTSRHNTYFEMLGNFSFGDYFKKEAILWAWEFLTEHLKLDPGRLWVTVFEDDDEAYEIWRDLVGVPEERIGRFGEDENYWPGGAITHGPNGPSGPCSEIFYDRGPAYGTPDETGPNTGSGDRFVEIWNLVFTQYDRQGPIPGPGILKPLPQKNIDTGMGLYRVAAILQDVEDFYRTDTFFPIIQEVARMSGRPYEGKTSVSHRVIADHVRAVVAALSDGATFSNTGRGYVIRRLLRRALRHGYLLGLSDPFLHRLAPLVAELLGDFYPEMRENLPAVEKQIRLEEERFLETLEGGLKRLDALLSGLKPGEVLPGKEAFRLYDTYGFPLDLTVEIAAERGYGVDTEGFQKAMEEQQSRSRAAMAFEREIFKKGAQVLEELYAERGATEFLGYNALEAEAEVLALLAGDQSLLEAGPGTEVQVVLDKTPFYAEGGGQIGDFGLLEWPGGRARVETTRKTERGIFLHKARVEEGVLRVGERVRAVVDPRRRDTERNHTATHLLHAALRAVLGPHVRQAGSLVAPDRLRFDFTHPEPLKPEELERVELLVNRWIMADFPVTWRYMPLEEARKEGAMALFGEKYGEVVRVVRVEGSPLEGLESKELCGGCHVRRTGEIGAFLIRSEEAVSAGVRRIEAVTGEEAIRFARGSLNRLKALAERLEVGEAALEERLEKLLAELKEKEREVESLKARLVQAALGGGGGASLEEKGGLRWTVAELPGLDAKALRQAADDLVARGADVALVLSGGQAVLKLSPKAQGMGLEAGALFRALAEKAGGRGGGKGALAQGGGLDPRKAREALPGLLP | soluble
8 | PPHVKYIKEKEICDYEPSSDAGHFRWYPKGKLIRDLLSDYVYNLVVENGGMPVETPVMYDLQNNAIREHADKFGERQYRFKQGNKDLMLRFAACFGQFMMKKDMYLLPKHMPLKLYELSTYSFRYEQRGELVGLKRLRAFTMPDMHTVCIDMKQAMEAFEDQLWMGLKTGDDFKTPYAIIFRFTEDFFEENKEWFFGMAKEYKQKYGKDAILEILPGRKHYWVGKVDMAVVDSFGRPIENPTVQIDVESAERFGIVVHDGDKKVQPIILHCSPTGSVERVLCGLLEN | not soluble
9 | MGHHHHHHSHQETQLSSKVVQKLVLPFGRLNYLPLEQQFMPCLERILAREAGVAPLATVNILMSLCQLRCLPFRALHFVFSPGFINYISGTPHALIVRRYLSLLDTAVELELPGYRGPRLPRRQQVPIFPQPLITDRARCKYSHKDIVAEGLRQLLGEEKYRQDLTVPPGYCTDFLLCASSSGAVLPVRTQDPFLP | not soluble
10 | MQLDPGRGYDLIGDVHGCAHTLDRLLDLLGYRLQGGVWRHPRRQALFLGDIVDRGPRIREALHRVHAMVDAGEALCIMGNHEFNALGWSTPAAPGSGRQYVREHTPRHARLIKETLEQFEGHDADWRDFLGWFQQLPLFLDAGRFRMVHACWDGELIATLRRQFPDGRISEAFLQESAEPGSFADLACNRLLRGTDMRLPHGATLTSSDGYTRAFFRTKFWVEDEAPRTYGDIVFQPDALPEAIAREPLSEEQKSSLLTYGADEPLLFVGHYWRRGTPAPIRPNLACLDYSAVMYGKLAAYRLDEETRLDRHKFVWVEVKRPEADE | soluble
11 | MEYKLHNGSGGLCCKGCSRQDKKLNTYDWLADIPGNAEECDMVEVQFKNTRKGYYRNSNKIKLEKGDIVAVEAAPGHDIGVVTLTGRLVPLQMKKANFKTDVEIKRIYRKAKPVDMEKFNEAKAKEHATMIRARQIALNLNLDMKIGDVEYQGDGNKAIFYYIADERVDFRQLIKVLAEAFRVRIEMKQIGARQEAGRIGGIGPCGRELCCATWMTSFVSVSTSAARFQDISLNPQKLAGQCAKLKCCLNYEVDCYVEAQKRLPSKEIELETKDGTFYFFKADILSNHVSYSTDKNFPANLVTISGKRAFEVIAMNKKGMKPDSLLEAEVKQESKKPIDLLEQESLTRFDRNRNNKDGNNGNRNKKKRKGNNDNRPQAQAESGNRPQQPQRGENENRPQPSENGNRGERGDRENRPRNNNNNNRNRGQNQGRNNENRRPERGQNQERPQNPNRPQNQERSQNQERPVNQERNQERNQERPQNRERQPKQERPQNQERPQEQGRQPNQERIPRPERNSNQEKPQNNEKPAQE | not soluble
12 | MGSSHHHHHHGKTIFVIVPTNEEQVAFLEALAKQDELNFDWQNPPTEPGQPVVILIPSDMVEWFLEMLKAKGIPFTVYVEEGGSENLYFQGGGGGGAQCVRRLVLAATLAAAVALLLCTSSAPVARAAGTGDFTAAQRTNTLAVLQAFGRAIPKLGEKWAGNDFCSWEAVLCNAPDVYVSGISPTYAGTLPEMPVNVDYRHVVIKQLDFSEMGPGLSGTLPASWHSMTSLESLSIEKCESISGSVPPEWGSMTSLSVLNLRGTGISGTLPPQWSGMSKARSLQLQDCDLSGSLPSSWSAIPMLASVSLKGNKFCGVCRTRGIRRLVLLWTSRTSTRAATAWLLRTAQRPPLSPPPRQRPPRTSLTFPLRRGPRLSRLPQPALRHRLNPQPPLRHRLNPRPLLPQQTRRLLHQRRSARWMGVRCARGTPLRGARGAVRTTS | not soluble
13 | GHMASGLTIYFKKPDSWGTPHLYYYDTNPKVDEPTWSEAPEMEHYEGDWYTHTIEGVESVRLLFKDRGTNQWPGPGEPGFFRDQDGWFDGEWHVDRPG | soluble
14 | MASPLYLHSSDGPENLITNVQLKGENYEDWAKHVRNASRTKQKLGFIDGTLEKPTKEDDMEQ | not soluble
15 | MHHHHHHSSGVDLGTENLYFQSMEESGATFHTYLNHLIQGLQKEAKEKFKGWVTCSSTDNTDLAFKKVGDGNPLKLWKASVEVEAPPSVVLNRVLRERHLWDEDFVQWKVVETLDRQTEIYQYVLNSMAPHPSRDFVVLRTWKTDLPKGMCTLVSLSVEHEEAQLLGGVRAVVMDSQYLIEPCGSGKSRLTHICRIDLKGHSPEWYSKGFGHLCAAEVARIRNSFQPLIAEGPETKI | soluble
16 | MGSDKIHHHHHHCVRVPTLMIVPEAAQSGVAETVFVASNRVFANGQFQSARQDDVTYTRFTVQIPQDRDAGAVRPGRARRTGPNLRTDFVASDGVHLGGEGRFQSELLAEARRRGTSEVMVFIHGFASSIGTGIYRTAQIRYDFEVPGVAVHYAWPSSGSYIGYAYDRDSALFARDGLEELITGIMQTDLDVVLVAHSLGSSVVMEVLRQLRIAGRNALIDRIHGVILFSPDLDVDVFRSQASRIGDLPQPFVIFTSQRDQALTFSSIMAGRTARVGNLATADQVAEFDVTLIDVSAFEGGVRDRLNHFAGATSQSAVQILRDAAQINSAFEDGPDARPGLLPGTILTIQNATLVLLDPEHAR | not soluble
17 | MSEKVVFSQLSRKFIDENDATPAEAQQVVYYSLAIGHHLGVIDCLEAALTCPWDEYLAWIATLEAGSEARRKMEGVPKYGEIVIDINHVPMLANAFDKARAAQTSQQKEWSTMLLSMLHDIHQENAIYLMVRRLRD | not soluble
